Measured values from publication PMC7683346.

Target: FFAR4-NanoLuc (UniProt Q5NUL3)
Assay: FRET or BRET

UniProt Q5NUL3, sequence (Q5NUL3 whole entry): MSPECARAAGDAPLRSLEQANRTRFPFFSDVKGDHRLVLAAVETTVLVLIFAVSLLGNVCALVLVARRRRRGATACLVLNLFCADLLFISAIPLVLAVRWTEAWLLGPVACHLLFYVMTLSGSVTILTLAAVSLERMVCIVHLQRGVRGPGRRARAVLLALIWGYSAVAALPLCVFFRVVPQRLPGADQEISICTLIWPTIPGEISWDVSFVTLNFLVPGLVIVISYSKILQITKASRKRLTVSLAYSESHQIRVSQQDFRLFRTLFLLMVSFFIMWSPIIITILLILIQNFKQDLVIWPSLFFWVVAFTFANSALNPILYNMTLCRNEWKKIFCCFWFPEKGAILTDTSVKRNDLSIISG

| fold BRET signal against mini-Gαq | Substance |
| --- | --- |
| 3 fold | Venus-tagged mini-Gαi |
| 3 fold | Venus-tagged mini-Gαo |
